According to patent US20160272707A1 (COMPUGEN, published 2016):

Experiments:
[1] = molecular target: T1, human VSTM5-EGFP (SEQ ID NO:133) expressed on HEK-293 cells (human); assay: FACS, IgG1 at 22 nM on 293-huVSTM5 (VSTM5-EGFP) cells; grade from ratio to 293-MT control cells (>2000)
T1 construct: Full-length human VSTM5 fused at its C-terminus to EGFP; also called VSTM5_GFP

VSTM5 monomer [2] = molecular target: T2, VSTM5 monomer (UniProt A8MXK1 29-147, limits assumed); assay: SPR, VSTM5 monomer binding to the IgG (equilibrium binding constant)
T2 construct: also called monomeric VSTM5 antigen; VSTM5 antigen
T2 sequence (looked up): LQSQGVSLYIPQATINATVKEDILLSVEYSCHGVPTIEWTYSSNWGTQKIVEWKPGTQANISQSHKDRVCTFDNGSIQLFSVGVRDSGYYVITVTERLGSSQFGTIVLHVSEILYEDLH

[3] = molecular target: T3, mouse VSTM5 (SEQ ID NO:11) expressed on HEK-293T cells (mouse, UniProt Q9D806 28-199); assay: FACS titration on 293-muVSTM5 cells, panel 'Ab binding vs. mouse VSTM5'
T3 construct: also called mouse VSTM5 untagged
T3 sequence: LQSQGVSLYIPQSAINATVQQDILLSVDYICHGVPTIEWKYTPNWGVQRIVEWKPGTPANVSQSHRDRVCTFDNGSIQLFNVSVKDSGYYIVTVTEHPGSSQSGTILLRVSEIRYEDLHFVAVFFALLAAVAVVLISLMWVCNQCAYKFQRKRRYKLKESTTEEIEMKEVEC

VSTM5 monomer [4] = molecular target: T2, VSTM5 monomer; assay: SPR, VSTM5 monomer binding to the IgG
[5] = molecular target: T1, human VSTM5-EGFP (SEQ ID NO:133) …; assay: FACS titration of the human IgG1 on 293-huVSTM5 cells, 293-MT control cells as open squares; y axis MFI (anti-Human A647)
[6] = molecular target: T1, human VSTM5-EGFP (SEQ ID NO:133) …; assay: FACS, IgG1 at 22 nM on 293-huVSTM5 (VSTM5-EGFP) cells; grade from ratio to 293-MT control cells (850-2000)

B1: 49-01.F05 (antibody, V domains shown)
VH: QVQLQQWGAGLLKPSETLSLTCAVYGGSFSGYYWSWIRQPPGKGLEWIGEINHSGSTNYNPSLKSRVTISVDTSKNQFSLKLSSVTAADTAVYYCARGWRGGSFMDVWGQGTTVTVSS
VL: QSALTQPRSVSGSPGQSVTISCTGTSSDVGGYNYVSWYQQHPGKAPKLMIYDVIKRPSGVPDRFSGSRSGNTASLTISGLQAEDEADYYCCSYAGTHWVFGGGTKLTVLG
ratio of 293-huVSTM5 cell binding / 293-MT control cell binding (FACS) at 22 nM mAb [1]: > 2000 ratio | Kd (VSTM5 monomer [2]): 190 nM | binding result [3]: no binding | Kd (VSTM5 monomer [4]): 190 nM

B2: 49-01.D06 (antibody, V domains shown)
VH: QVQLVQSGAEVKKPGTSVKVSCKASGYTFTTYTMHWVRQAPGQRLEWMGWINTGNGNTKYSQKFQDRVTITRDTSASTAYMELSSLKFEDTAVYYCAREGVTIFGDHSYYYGMDVWGQGTTVTVSS
VL: QPVLTQSSSASASLGSSVKLTCTLSSGHSSYIIAWHQQQPGKAPRYLMKLEGSGSYNKGSGLPDRFSGSSSGADRYLTISNLQSEDEADYYCETWDGNTWVFGGGTQLTVLG
ratio of 293-huVSTM5 cell binding / 293-MT control cell binding (FACS) at 22 nM mAb [1]: > 2000 ratio | binding result [3]: no binding

B3: 49-01.F01 (antibody, V domains shown)
VH: EVQLVESGGGVVKPGESLRLLCTASGLSFNKYSINWVRQAPGGGLEWVSSIESGSGHIYYADSLEGRFTISRDNAKNSVTLEMNSLRVEDTALYYCVSGPEDKWLLQLYFESWGQGTLVTVSS
VL: EIVLTQSPATLSLSPGERATLSCRTSQSSPSDNLAWYQHKPGQAPRLLIYGGSNRATGIPARFSGSGSGTDFTLTISSLEPEDFAVYYCQQYGSSPLTFGGGTKVDIKR
ratio of 293-huVSTM5 cell binding / 293-MT control cell binding (FACS) at 22 nM mAb [1]: > 2000 ratio | EC50 (read off the curve) [5]: ~1 nM | Kd (VSTM5 monomer [2]): 2 nM | binding result [3]: no binding | Kd (VSTM5 monomer [4]): 2 nM

B4: 50-01.E02 (antibody, V domains shown)
VH: QVQLVESGGGVVQPGGSLKLSCVASGFTFSAYAMNWVRLVPGKGLEWVSGISGNGYSTFYPDSVQGRFTVSRDNSKNTLFLQIDRLTGGDTAIYYCAKVQTTVITPFQNWGQGTLVTVSS
VL: EIVLTQSPGTLSLSPGERATLSCRASQNIGSNFLAWYQQKPGQAPRLLIYGASTRANGIPDRFSGSKSETDFTLTISRLEPEDFAVYYCQQYDNSPYTFGQGTKLEIKR
EC50 (read off the curve) [5]: ~1 nM | binding result [3]: no binding | ratio of 293-huVSTM5 cell binding / 293-MT control cell binding (FACS) at 22 nM mAb [6]: 850 to 2000 ratio

B5: 49-02.C11 (antibody, V domains shown)
VH: EVQLVESGGGLVQPGGSLRLSCAASGFTFSSYAMTWVRQAPGKGLEWVSVISGGGGTTYYADSVKGRFTISRDNSKNTLYLQMSSLRAEDTAVYYCAKGYSSGWPYYFDYWGQGTLVTVSS
VL: EIVLTQSPGTLSLSPGERATLSCRASQSGVTNFLAWYQQKPGQAPRLLIYATSSRATGIPDRFSGSASGTDFTLTITRLEPEDFAVYFCQQYASSPLTFGGGTKVEIKR
notes: also called 49-02.011
binding result [3]: no binding | ratio of 293-huVSTM5 cell binding / 293-MT control cell binding (FACS) at 22 nM mAb [6]: 850 to 2000 ratio
